According to US20160319032A1:
Each block holds one binder with its values, some of them ahead of it.

Tests used:
[1] = target: mouse αVβ6 on cells (mouse) (UniProt P43406); test: FACS, purified mAb, transfected HEK-293 (parental: 74)
[2] = target: mouse αVβ6 on cells (mouse) (UniProt P43406); test: FACS, K562 cells expressing mouse αVβ6 (parental K562: 33)
[3] = target: cynomolgus β6 on transfected HEK-293 cells (cynomolgus); test: FACS, purified mAb, transfected HEK-293 (parental: 2)

Chain of mouse αVβ6 on cells (mouse) (P43406 31-1044, chain 1 of 2): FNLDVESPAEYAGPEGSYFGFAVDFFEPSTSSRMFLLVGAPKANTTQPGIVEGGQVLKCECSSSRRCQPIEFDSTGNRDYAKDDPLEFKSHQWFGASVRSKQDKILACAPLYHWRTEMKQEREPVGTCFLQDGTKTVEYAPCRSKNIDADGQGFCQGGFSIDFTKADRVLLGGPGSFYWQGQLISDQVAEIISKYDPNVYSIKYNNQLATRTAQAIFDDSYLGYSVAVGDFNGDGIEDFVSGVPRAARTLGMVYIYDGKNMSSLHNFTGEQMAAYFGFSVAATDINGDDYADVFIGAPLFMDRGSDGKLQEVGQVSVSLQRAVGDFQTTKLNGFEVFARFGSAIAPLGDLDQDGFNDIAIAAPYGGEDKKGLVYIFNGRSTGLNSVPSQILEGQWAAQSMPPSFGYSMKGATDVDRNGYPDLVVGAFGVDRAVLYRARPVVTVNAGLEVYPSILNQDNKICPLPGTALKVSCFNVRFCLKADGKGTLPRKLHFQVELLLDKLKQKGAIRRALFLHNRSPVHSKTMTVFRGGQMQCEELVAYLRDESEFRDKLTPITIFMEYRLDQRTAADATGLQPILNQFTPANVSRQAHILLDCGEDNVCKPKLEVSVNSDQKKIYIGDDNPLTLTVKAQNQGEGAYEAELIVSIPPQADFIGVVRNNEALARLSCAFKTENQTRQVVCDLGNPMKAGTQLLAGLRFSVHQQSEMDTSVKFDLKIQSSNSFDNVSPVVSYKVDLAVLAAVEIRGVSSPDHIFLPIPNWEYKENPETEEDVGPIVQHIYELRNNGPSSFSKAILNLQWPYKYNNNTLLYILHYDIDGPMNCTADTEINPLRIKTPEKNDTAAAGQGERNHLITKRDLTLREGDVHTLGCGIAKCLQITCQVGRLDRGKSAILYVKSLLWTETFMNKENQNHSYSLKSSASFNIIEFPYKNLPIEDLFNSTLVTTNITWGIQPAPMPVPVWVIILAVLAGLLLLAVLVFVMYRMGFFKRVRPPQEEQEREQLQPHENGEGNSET
Chain of mouse αVβ6 on cells (mouse) (Q9Z0T9 22-787, chain 2 of 2, further chain): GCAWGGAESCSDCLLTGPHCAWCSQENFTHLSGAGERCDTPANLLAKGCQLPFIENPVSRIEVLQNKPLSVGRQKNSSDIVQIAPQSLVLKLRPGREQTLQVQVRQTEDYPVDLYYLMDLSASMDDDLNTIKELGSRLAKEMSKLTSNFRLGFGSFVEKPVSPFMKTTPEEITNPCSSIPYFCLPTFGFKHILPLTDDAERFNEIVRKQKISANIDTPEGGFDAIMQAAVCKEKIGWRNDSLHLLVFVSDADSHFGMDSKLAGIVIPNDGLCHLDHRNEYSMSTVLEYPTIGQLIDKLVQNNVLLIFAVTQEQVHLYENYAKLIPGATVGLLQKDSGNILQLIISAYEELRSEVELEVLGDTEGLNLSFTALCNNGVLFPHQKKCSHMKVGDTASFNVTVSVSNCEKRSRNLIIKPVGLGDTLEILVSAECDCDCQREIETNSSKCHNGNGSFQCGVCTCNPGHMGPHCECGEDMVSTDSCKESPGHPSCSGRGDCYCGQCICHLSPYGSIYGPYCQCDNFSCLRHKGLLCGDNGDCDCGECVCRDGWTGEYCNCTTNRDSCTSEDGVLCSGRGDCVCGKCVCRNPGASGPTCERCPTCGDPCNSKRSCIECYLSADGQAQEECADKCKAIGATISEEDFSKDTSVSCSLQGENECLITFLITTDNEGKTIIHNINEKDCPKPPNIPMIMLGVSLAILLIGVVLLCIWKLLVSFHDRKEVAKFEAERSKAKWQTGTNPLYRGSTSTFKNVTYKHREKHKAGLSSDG

percent of cells shifted [1]: 63% | Geometric Mean Shift (arbitrary units) [2]: 160
B1: sc 264 (antibody, V domains shown)
VH: QVQLQESGPGLVKPSQTLSLTCTVSGGSISSGGYYWSWIRQHPGKGLEWIGYIYYSGRTYNNPSLKSRVTISVDTSKNQFSLKLSSVTAADTAVYYCARVATGRGDYHFYAMDVWGQGTTVTVSS
VL: SYELTQPSSVSVSPGQTARITCSGDVLAKKSARWFHQKPGQAPVLVIYKDSERPSGIPERFSGSSSGTTVTLTISGAQVEDEAAYYCYSAADNNLVFGGGTKLTVL

percent of cells shifted [3]: 10%
B2: sc 133 (antibody, V domains shown)
VH: QVQLVQSGAEVKKPGASVKVSCKASGYTFTGYYMHWVRQAPGQGLEWMGWINPKSGDTNYAQKFQGRVTLTRDTSTSTAYMELSRLRSDDTAVYYCARRLDVWGQGTTVTVSS
VL: QSVLTQPPSVSAAPGQKVTISCSGSSSNIGNNYVSWYQQLPGTAPKLLIYDNNKRPSGIPDRFSGSKSGTSATLGITGLQTGDEADYYCGTWNSSLSAGYVFGTGTKVTV
